Experimental data taken from the PETadex activity labels (doi:10.1038/s41467-025-61599-z).

Key:
[1] = Proxy for plastic degradation [UPLC/UHPLC]; details: pH 9
[2] = substrate: p-NP-C4
[3] = substrate: PET; test: Proxy for plastic degradation [kcat/Km (catalytic efficiency)] (mM⁻¹s⁻¹); details: pH 8
[4] = substrate: PET; test: Proxy for plastic degradation [Released monomer concentration (HPLC/LC-MS) (TPA+MHET)]

Protein | Proxy for plastic degradation ([1]; 30 °C) [µM] | Proxy for plastic degradation ([1]; 40 °C) [µM] | Proxy for plastic degradation ([1]; 50 °C) [µM] | Proxy for plastic degradation ([1]; 55 °C) [µM] | Proxy for plastic degradation ([1]; 60 °C) [µM] | also measured
unnamed (protein) MRIRQALVAFCAAIAMVVAGPSYASALDSPYQRGPDPTEASVKAIAGPFAVDQVKATGHTGFGSGTIFYPKDEKGTFGTIAVSPGFISPEGLVHWYAKTLASHGFVVMAMGTFTVADPPPSRGDQLRAALDYMKTKSPVKDKVDPTRLGLSGHSMGGGGTLDAASKMPDLKAAVPLAPWYLTGGPVIPKVKAPTLVVGANIDFVAPMAIFATPFYKALTSPNKALLTLPGDHMTPFLLANPTLTKFAVSWFKRFLDDDTRYDQFLCPNPASYEGTCPLT | 11.2 | 22.8 | 44.2 | 26.1 | 19.7 | 
unnamed (protein) MDGVLWRVRTAALMAALLALAAWALVWASPSVEAQSNPYQRGPNPTRSALTADGPFSVATYTVSRLSVSGFGGGVIYYPTGTSLTFGGIAMSPGYTADASSLAWLGRRLASHGFVVLVINTNSRFDYPDSRASQLSAALNYLRTSSPSAVRARLDANRLAVAGHSMGGGGTLRIAEQNPSLKAAVPLTPWHTDKTFNTSVPVLIVGAEADTVAPVSQHAIPFYQNLPSTTPKVYVELDNASHFAPNSNNAAISVYTISWMKLWVDNDTRYRQFLCNVNDPALSDFRTNNRHCQ |  |  |  |  |  | Km ([2]; pH 8, 65 °C): 1.05 mM; kcat ([2]; pH 8, 65 °C): 0.186 s⁻¹; kcat/Km ([2]; pH 8, 65 °C): 177 s⁻¹ M⁻¹; Proxy for plastic degradation [3]: 0.208; Proxy for plastic degradation ([4]; 30 °C): 44.7 µM; Proxy for plastic degradation ([4]; 40 °C): 115 µM; Proxy for plastic degradation ([4]; 50 °C): 628 µM; Proxy for plastic degradation ([4]; 55 °C): 2030 µM; Proxy for plastic degradation ([4]; 60 °C): 2450 µM; Proxy for plastic degradation ([4]; 65 °C): 3150 µM
unnamed (protein) MQTNPYARGPNPTAASLEASAGPFTVRSFTVSRPSGYGAGTVYYPTNAGGTVGAIAIVPGYTARQSSIKWWGPRLASHGFVVITIDTNSTLDQPESRSSQQMAALRQVASLNGTSSSPIYGKVDTARMGVMGWSMGGGGSLISAANNPSLKAAAPQAPWHSSTNFSSVTVPTLIFACENDSIAPVNSSALPIYDSMSQNAKQFLEIKGGSHSCANSGNSNQALIGKKGVAWMKRFMDNDTRYSTFACENPNSTAVSDFRTANCS |  |  |  |  |  | Km ([2]; 50 °C, part of the chain shown): 1.57 mM; kcat ([2]; 50 °C, part of the chain shown): 0.215 s⁻¹; kcat/Km ([2]; 50 °C, part of the chain shown): 137 s⁻¹ M⁻¹
unnamed (protein) MTAAAVSSRYYEETGPHAVTVEQGGPDHTLYYPSDLGAGGTQHPVVIWGNGTGATPETYDEGLRHFASWGFVVAAANTTQAGSGKEMLAGARFLIEEDQRSGSVFYGKIDETRIGAAGHSQGGGGAIAAGADPIVDTTIPIQPGPQGTVGDLHGPAFFISGQFDWIVPSSYVYSRYLGADHVPAVFGELRGADHFFPGDTRLRLIGATTAWFRFHLMADENARGIFFGPSSTCGICTDTEAWSKVDRNAKAQAIPG | 13.9 | 14.7 | 10.6 | 15.5 | 15.3 | 
unnamed (protein) MALVTALALVTGVGTAPAFADEIGQAPTAANITGDGSFSTSSSAIFGQSGFGGGTAYYPNTAGKYPVVAFAPGFLSDWNALNWLGPRVASWGFVVVGVNTNTPFDFPDARGDQLLAALNWAVNSAPAAVRDKADGSRRGVSGWSMGGGGTLEALAKDTTGTVKAGVPLAPWHTNKTWSKVTEPVFIIGGQNDSVAAPASHAIPFYNSLGGPKSYLERAGADHFFPTKSNGTVSRAVVSFFKRHVSADTRFTPFLCGFSGLDVSNFRSNSC | 65.5 | 759 | 3600 | 596 | 167 | Km ([2]; 50 °C): 1.04 mM; kcat ([2]; 50 °C): 0.27 s⁻¹; kcat/Km ([2]; 50 °C): 260 s⁻¹ M⁻¹
unnamed (protein) MNFPRASRLMQAAVLGGLMAVSAAATAQTNPYARGPNPTAASLEASAGPFTVRSFTVSRPSGYGAGTVYYPTNAGGTVGAIAIVPGYTARQSSINWWGPRLASHGFVVITIDTNSTLDQPSSRSSQQMAALRQVASLNGTSSSPIYGKVDTARMGVMGWSMGGGGSLISAANNPSLKAAAPQAPWNSSTNFSSVTVPTLIFACENDSIAPVNSHALPFYNSMSRNAKQFLEINGGSHSCANSGNSNQALIGKKGVAWMKRFMDNDTRYSTFACQNPNSTRVSDFRTANCS | 17.3 | 64.7 | 46.9 | 27.4 | 17.4 | 
